This passage reports ratio Gt•GDP:Gt by native MS with 90 μM compound 1, ROS membrane present, from dark (1.2) to 15 s of illumination (0.6) (ratio Gt•GDP:Gt), ratio Gt•GDP:Gt by native MS with 90 μM compound 6, ROS membrane present, from dark (2.0) to 15 s of illumination (0.8) (ratio Gt•GDP:Gt) and ratio Gt•GDP:Gt by native MS, control without compound, ROS membrane present, from dark (4.1) to 15 s of illumination (1.2) (ratio Gt•GDP:Gt) results from PMC9007743.

In this experiment the target is rhodopsin (bovine (endogenous in bovine retina)) (UniProt P02699).
Sequence of rhodopsin (bovine (endogenous in bovine retina)) (P02699 whole entry): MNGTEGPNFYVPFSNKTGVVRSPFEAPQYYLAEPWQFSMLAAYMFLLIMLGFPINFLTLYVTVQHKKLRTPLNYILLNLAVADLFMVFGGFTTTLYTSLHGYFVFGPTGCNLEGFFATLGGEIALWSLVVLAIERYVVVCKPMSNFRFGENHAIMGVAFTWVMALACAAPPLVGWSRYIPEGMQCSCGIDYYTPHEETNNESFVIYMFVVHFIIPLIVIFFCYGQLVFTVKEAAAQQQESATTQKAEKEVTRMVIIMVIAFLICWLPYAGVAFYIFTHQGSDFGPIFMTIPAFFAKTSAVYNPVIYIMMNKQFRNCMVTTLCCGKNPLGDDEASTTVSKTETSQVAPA

Sequence of transducin, heterotrimeric G protein (Gt) (P04695 whole entry): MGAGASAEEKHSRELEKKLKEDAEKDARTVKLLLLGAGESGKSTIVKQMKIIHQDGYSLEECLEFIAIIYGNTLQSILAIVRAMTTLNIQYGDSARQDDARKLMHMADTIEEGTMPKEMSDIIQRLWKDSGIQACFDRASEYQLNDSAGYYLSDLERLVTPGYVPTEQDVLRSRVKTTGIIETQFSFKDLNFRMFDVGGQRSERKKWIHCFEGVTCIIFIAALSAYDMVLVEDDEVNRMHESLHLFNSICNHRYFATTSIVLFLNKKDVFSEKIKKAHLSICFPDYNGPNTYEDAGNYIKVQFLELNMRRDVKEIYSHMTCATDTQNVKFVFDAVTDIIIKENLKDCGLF
Sequence of transducin, heterotrimeric G protein (Gt) (P62871 whole entry): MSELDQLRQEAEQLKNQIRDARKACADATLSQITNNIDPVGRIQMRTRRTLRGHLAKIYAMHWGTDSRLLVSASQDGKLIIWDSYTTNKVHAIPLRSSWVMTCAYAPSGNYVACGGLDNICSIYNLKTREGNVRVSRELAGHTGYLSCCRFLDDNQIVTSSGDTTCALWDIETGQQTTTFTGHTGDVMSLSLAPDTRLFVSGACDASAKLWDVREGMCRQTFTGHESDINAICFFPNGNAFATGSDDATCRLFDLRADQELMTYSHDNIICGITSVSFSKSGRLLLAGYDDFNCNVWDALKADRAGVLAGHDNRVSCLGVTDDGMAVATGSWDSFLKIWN
Sequence of transducin, heterotrimeric G protein (Gt) (P02698 whole entry): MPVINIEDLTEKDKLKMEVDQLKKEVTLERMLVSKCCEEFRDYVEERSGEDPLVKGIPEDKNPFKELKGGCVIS

As to “transducin, heterotrimeric G protein (Gt) (from UniProt P04695 1-350; P62871 1-340; P02698 1-74) (complex)”, the ratio Gt•GDP:Gt by native MS with 90 μM compound 1, ROS membrane present, from dark (1.2) to 15 s of illumination (0.6) (ratio Gt•GDP:Gt) is 1.2; the ratio Gt•GDP:Gt by native MS with 90 μM compound 6, ROS membrane present, from dark (2.0) to 15 s of illumination (0.8) (ratio Gt•GDP:Gt) was found to be 2; the ratio Gt•GDP:Gt by native MS, control without compound, ROS membrane present, from dark (4.1) to 15 s of illumination (1.2) (ratio Gt•GDP:Gt) amounted to 4.1.
